Test results: publication PMC314469, “Protein Interaction Networks by Proteome Peptide Scanning” (PLoS Biology, 2004)

How the values were obtained:
[1] = molecular target: T1, amphyphisin SH3 (AMPH_HUMAN), P49418; assay: SPOT array
T1 chain: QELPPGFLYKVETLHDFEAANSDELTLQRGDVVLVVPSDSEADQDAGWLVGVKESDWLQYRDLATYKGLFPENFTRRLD

[2] = molecular target: endophilin SH3 (SH3G2_HUMAN), Q99962; assay: SPOT array

Question: What does the source list for ASATLGRPPRIPEP [Q9H0P6 178-191]?
Answer: normalised SPOT signal, Boehringer light units (BLU); mean over the file's lines of this peptide [1]: 139; normalised SPOT signal, Boehringer light units (BLU); mean over the file's lines of this peptide [2]: 65.5

Question: How did the normalised SPOT signal, Boehringer light units (BLU); mean over the file's lines of this peptide [1] turn out when PMRLPRRPLRAFES [O14545 178-191] was run?
Answer: 5210

Question: And the normalised SPOT signal, Boehringer light units (BLU); mean over the file's lines of this peptide [2]?
Answer: 1200

Question: What does the source list for PPLEPARPNRHPES [Q9H293 60-73]?
Answer: normalised SPOT signal, Boehringer light units (BLU); mean over the file's lines of this peptide [1]: 282; normalised SPOT signal, Boehringer light units (BLU); mean over the file's lines of this peptide [2]: 0

Question: What does the source list for PMEGIRRPDQALLP [O00253 27-40]?
Answer: normalised SPOT signal, Boehringer light units (BLU); mean over the file's lines of this peptide [1]: 36; normalised SPOT signal, Boehringer light units (BLU); mean over the file's lines of this peptide [2]: 66

Question: With PNYDLRRPHQYLHP [O94991 899-912] as the binder, how does the normalised SPOT signal, Boehringer light units (BLU); mean over the file's lines of this peptide [1] read?
Answer: 24.6

Question: And the normalised SPOT signal, Boehringer light units (BLU); mean over the file's lines of this peptide [2]?
Answer: 0

Question: How did the normalised SPOT signal, Boehringer light units (BLU); mean over the file's lines of this peptide [1] turn out when AARTLRRPKALDSG [Q96RY6 273-286] was run?
Answer: 7.6

Question: And the normalised SPOT signal, Boehringer light units (BLU); mean over the file's lines of this peptide [2]?
Answer: 0

Question: With PPKWIRRPTGVSFA [Q9NQW1 380-393] as the binder, how does the normalised SPOT signal, Boehringer light units (BLU); mean over the file's lines of this peptide [1] read?
Answer: 42.3

Question: What about the normalised SPOT signal, Boehringer light units (BLU); mean over the file's lines of this peptide [2] of the same binder?
Answer: 433

Question: With PNATPRRPLQELRR [Q9HCF2 2-15] as the binder, how does the normalised SPOT signal, Boehringer light units (BLU); mean over the file's lines of this peptide [1] read?
Answer: 405

Question: And the normalised SPOT signal, Boehringer light units (BLU); mean over the file's lines of this peptide [2]?
Answer: 1570

Question: Which results are given for PPHLPARPPGGWSR [BAC04291 42-56]?
Answer: normalised SPOT signal, Boehringer light units (BLU); mean over the file's lines of this peptide [1]: 1280; normalised SPOT signal, Boehringer light units (BLU); mean over the file's lines of this peptide [2]: 2410

Question: For PPKRPGRPPKNRES [P55201 903-917], which normalised SPOT signal, Boehringer light units (BLU); mean over the file's lines of this peptide [1] is on record?
Answer: 7550

Question: What about the normalised SPOT signal, Boehringer light units (BLU); mean over the file's lines of this peptide [2] of the same binder?
Answer: 13900

Question: PPARPPRPPYPPRR [AAH27972 518-532] was tested. Which normalised SPOT signal, Boehringer light units (BLU); mean over the file's lines of this peptide [1] did it give?
Answer: 16000

Question: What about the normalised SPOT signal, Boehringer light units (BLU); mean over the file's lines of this peptide [2] of the same binder?
Answer: 20000

Question: How did the normalised SPOT signal, Boehringer light units (BLU); mean over the file's lines of this peptide [1] turn out when PNLIPRRPSPYEKT [O95450 1177-1190] was run?
Answer: 131

Question: And the normalised SPOT signal, Boehringer light units (BLU); mean over the file's lines of this peptide [2]?
Answer: 398

Question: What does the source list for PPAPLRRPLAVLHA [Q96BU4 174-187]?
Answer: normalised SPOT signal, Boehringer light units (BLU); mean over the file's lines of this peptide [1]: 315; normalised SPOT signal, Boehringer light units (BLU); mean over the file's lines of this peptide [2]: 453

Question: Which normalised SPOT signal, Boehringer light units (BLU); mean over the file's lines of this peptide [1] does the source give for PPPPIPRPAKLQAA [Q9HCG4 308-321] here?
Answer: 91

Question: What about the normalised SPOT signal, Boehringer light units (BLU); mean over the file's lines of this peptide [2] of the same binder?
Answer: 102

Question: With PPGKPERPPPQGGN [P10163 115-129] as the binder, how does the normalised SPOT signal, Boehringer light units (BLU); mean over the file's lines of this peptide [1] read?
Answer: 59.4

Question: And the normalised SPOT signal, Boehringer light units (BLU); mean over the file's lines of this peptide [2]?
Answer: 760

Question: With PPEKPPRPPRPLHL [Q8TEL4 110-124] as the binder, how does the normalised SPOT signal, Boehringer light units (BLU); mean over the file's lines of this peptide [1] read?
Answer: 14400

Question: What about the normalised SPOT signal, Boehringer light units (BLU); mean over the file's lines of this peptide [2] of the same binder?
Answer: 29300

Question: What does the source list for ASAPPRRPRPPPQS [Q9UEI9 3-16]?
Answer: normalised SPOT signal, Boehringer light units (BLU); mean over the file's lines of this peptide [1]: 914; normalised SPOT signal, Boehringer light units (BLU); mean over the file's lines of this peptide [2]: 1320

Question: PPPLPRRPSTPRQG [O75412 1048-1061] was tested. Which normalised SPOT signal, Boehringer light units (BLU); mean over the file's lines of this peptide [1] did it give?
Answer: 1930

Question: What about the normalised SPOT signal, Boehringer light units (BLU); mean over the file's lines of this peptide [2] of the same binder?
Answer: 9490

Question: Which results are given for PPPLPNKPPPEDYY [Q8TED9 137-151]?
Answer: normalised SPOT signal, Boehringer light units (BLU); mean over the file's lines of this peptide [1]: 42.3; normalised SPOT signal, Boehringer light units (BLU); mean over the file's lines of this peptide [2]: 92.7

Question: How did the normalised SPOT signal, Boehringer light units (BLU); mean over the file's lines of this peptide [1] turn out when PPLPPPRPPRPPSP [Q9UPS6 160-174] was run?
Answer: 5630

Question: What about the normalised SPOT signal, Boehringer light units (BLU); mean over the file's lines of this peptide [2] of the same binder?
Answer: 8000

Question: Which normalised SPOT signal, Boehringer light units (BLU); mean over the file's lines of this peptide [1] does the source give for PPPLPQRPPPRLPP [Q9H9H4 263-277] here?
Answer: 2170

Question: What about the normalised SPOT signal, Boehringer light units (BLU); mean over the file's lines of this peptide [2] of the same binder?
Answer: 2770

Question: Which normalised SPOT signal, Boehringer light units (BLU); mean over the file's lines of this peptide [1] does the source give for PPLLPPRPPQGLEP [Q8TEH3 833-847] here?
Answer: 107

Question: And the normalised SPOT signal, Boehringer light units (BLU); mean over the file's lines of this peptide [2]?
Answer: 335

Question: PPASPRRPRSFKSK [Q9HCK6 1105-1118] was tested. Which normalised SPOT signal, Boehringer light units (BLU); mean over the file's lines of this peptide [1] did it give?
Answer: 58.1

Question: What about the normalised SPOT signal, Boehringer light units (BLU); mean over the file's lines of this peptide [2] of the same binder?
Answer: 272

Question: What does the source list for PNIKISRPLKVLLT [Q9NPB9 231-244]?
Answer: normalised SPOT signal, Boehringer light units (BLU); mean over the file's lines of this peptide [1]: 91.3; normalised SPOT signal, Boehringer light units (BLU); mean over the file's lines of this peptide [2]: 155

Question: How did the normalised SPOT signal, Boehringer light units (BLU); mean over the file's lines of this peptide [1] turn out when PPALPPKPPKPMTS [Q92569 33-47] was run?
Answer: 88.3

Question: What about the normalised SPOT signal, Boehringer light units (BLU); mean over the file's lines of this peptide [2] of the same binder?
Answer: 2510

Question: How did the normalised SPOT signal, Boehringer light units (BLU); mean over the file's lines of this peptide [1] turn out when PPPIPKKPPKGKFP [Q9P1A6 952-966] was run?
Answer: 64.7

Question: What about the normalised SPOT signal, Boehringer light units (BLU); mean over the file's lines of this peptide [2] of the same binder?
Answer: 3890

Question: With PLRPILRPRKYPNR [P11161 316-329] as the binder, how does the normalised SPOT signal, Boehringer light units (BLU); mean over the file's lines of this peptide [1] read?
Answer: 2100

Question: What about the normalised SPOT signal, Boehringer light units (BLU); mean over the file's lines of this peptide [2] of the same binder?
Answer: 4850

Question: With PPAPPLRPPGPPTG [Q9Y2W2 415-429] as the binder, how does the normalised SPOT signal, Boehringer light units (BLU); mean over the file's lines of this peptide [1] read?
Answer: 356

Question: And the normalised SPOT signal, Boehringer light units (BLU); mean over the file's lines of this peptide [2]?
Answer: 3740

Question: How did the normalised SPOT signal, Boehringer light units (BLU); mean over the file's lines of this peptide [1] turn out when PMVPPRRPWTLVNW [Q9NRZ5 298-311] was run?
Answer: 2870

Question: What about the normalised SPOT signal, Boehringer light units (BLU); mean over the file's lines of this peptide [2] of the same binder?
Answer: 648

Question: Which normalised SPOT signal, Boehringer light units (BLU); mean over the file's lines of this peptide [1] does the source give for PPLLPGRPARDRGP [Q9Y6J0 1777-1790] here?
Answer: 6220

Question: And the normalised SPOT signal, Boehringer light units (BLU); mean over the file's lines of this peptide [2]?
Answer: 27100

Question: For PPGPPTRPPGPWRW [O15354 108-122], which normalised SPOT signal, Boehringer light units (BLU); mean over the file's lines of this peptide [1] is on record?
Answer: 1320

Question: And the normalised SPOT signal, Boehringer light units (BLU); mean over the file's lines of this peptide [2]?
Answer: 9250

Question: PPAPPTRPPRRSDS [P35443 278-292] was tested. Which normalised SPOT signal, Boehringer light units (BLU); mean over the file's lines of this peptide [1] did it give?
Answer: 20500

Question: And the normalised SPOT signal, Boehringer light units (BLU); mean over the file's lines of this peptide [2]?
Answer: 12100

Question: How did the normalised SPOT signal, Boehringer light units (BLU); mean over the file's lines of this peptide [1] turn out when PPALPPKPPKPTTV [AAH30815 33-47] was run?
Answer: 77.9

Question: And the normalised SPOT signal, Boehringer light units (BLU); mean over the file's lines of this peptide [2]?
Answer: 3470

Question: With PPGKPERPPPQGGD [P81489 133-147] as the binder, how does the normalised SPOT signal, Boehringer light units (BLU); mean over the file's lines of this peptide [1] read?
Answer: 61.4

Question: And the normalised SPOT signal, Boehringer light units (BLU); mean over the file's lines of this peptide [2]?
Answer: 312

Question: PPALPPKPPKAKPA [O00459 298-312] was tested. Which normalised SPOT signal, Boehringer light units (BLU); mean over the file's lines of this peptide [1] did it give?
Answer: 124

Question: And the normalised SPOT signal, Boehringer light units (BLU); mean over the file's lines of this peptide [2]?
Answer: 4320

Question: What does the source list for ASAPPRRPRPPPPS [Q9UEF7 3-16]?
Answer: normalised SPOT signal, Boehringer light units (BLU); mean over the file's lines of this peptide [1]: 230; normalised SPOT signal, Boehringer light units (BLU); mean over the file's lines of this peptide [2]: 9160

Question: How did the normalised SPOT signal, Boehringer light units (BLU); mean over the file's lines of this peptide [1] turn out when PPGLPPRPPLSSSS [Q13470 532-546] was run?
Answer: 433

Question: And the normalised SPOT signal, Boehringer light units (BLU); mean over the file's lines of this peptide [2]?
Answer: 5470

Question: What does the source list for PPLLPRRPPPRVPA [O15056 1170-1184]?
Answer: normalised SPOT signal, Boehringer light units (BLU); mean over the file's lines of this peptide [1]: 4490; normalised SPOT signal, Boehringer light units (BLU); mean over the file's lines of this peptide [2]: 7190

Question: PPPKPNRPPNVDLT [O15117 355-369] was tested. Which normalised SPOT signal, Boehringer light units (BLU); mean over the file's lines of this peptide [1] did it give?
Answer: 316

Question: What about the normalised SPOT signal, Boehringer light units (BLU); mean over the file's lines of this peptide [2] of the same binder?
Answer: 2890

Question: PPKWIRRPVGASFS [O94979 386-399] was tested. Which normalised SPOT signal, Boehringer light units (BLU); mean over the file's lines of this peptide [1] did it give?
Answer: 41.1

Question: And the normalised SPOT signal, Boehringer light units (BLU); mean over the file's lines of this peptide [2]?
Answer: 642

Question: What does the source list for PMAPIRRPISAESA [P53675 58-71]?
Answer: normalised SPOT signal, Boehringer light units (BLU); mean over the file's lines of this peptide [1]: 1010; normalised SPOT signal, Boehringer light units (BLU); mean over the file's lines of this peptide [2]: 464

Question: With PNLLPHRPPLLVFP [Q9Y6X6 669-683] as the binder, how does the normalised SPOT signal, Boehringer light units (BLU); mean over the file's lines of this peptide [1] read?
Answer: 70.2

Question: And the normalised SPOT signal, Boehringer light units (BLU); mean over the file's lines of this peptide [2]?
Answer: 191
